{"source": "paper PMC3520712", "about": "“Arabidopsis mutant sk156 reveals complex regulation of SPL15 in a miR156-controlled gene network”", "binders": {"B1": {"name": "miR156b promoter 46-mer (R156b-bx1) (dsDNA)", "DNA 1": "TAATTAGTGAAACTGTACAATGTACAATGTACCAATGCCATTAATG", "DNA 2": "CATTAATGGCATTGGTACATTGTACATTGTACAGTTTCACTAATTA"}}, "biological_target": "T1, SPL15 SBP domain (His-tagged) (Arabidopsis thaliana, UniProt Q9M2Q6 50-139)", "T1 sequence": "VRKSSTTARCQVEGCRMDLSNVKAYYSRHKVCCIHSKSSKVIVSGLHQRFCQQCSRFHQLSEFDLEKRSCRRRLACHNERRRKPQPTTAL", "assay": "EMSA; ~500 ng protein, ~20 fmol DNA; displaced by 100-fold unlabeled N1; 10 mM Tris pH 7.5, 50 mM KCl, 5 mM MgCl (so in the source), 5 mM DTT, 2.5% glycerol, 0.05% NP-40, 25 C 30 min; 7.5% gel in 0.5x TBE at 4 C", "details": "protein: recombinant; tags: His tag (pET28a, BamHI/SalI; 16.3 kD fusion); label: digoxigenin (DIG Gel Shift kit); blunt"}
{"binder": "B1", "values": [{"measurement": "binding result", "result": "binds"}]}
